This note sets out measurements from the supplement of paper PMC7877785.

± gives the uncertainty stated by the source.

A short description of the series: self-splicing fitness, log relative to wild type (ln ratio); higher = more splicing; Tetrahymena group I intron in knt gene, E. coli kanamycin selection, DiMSum; sequences stand for … in CUCUCU…GGAGGGAAAAGUUAUCAGGCAUGCACCUGGUAGCUAGUCUUUAAACCAAUAGAUUGCAUCGGUUUAAAAGGCAAGACCGUCAAAUUGCGGGAAAGGGGUCAACAGCCGUUCAGUACCAAGUCUCAGGGGAAACUUUGAGAUGGCCUUGCAAAGGGUAUGGUAAUAAGCUGACGGACAUGGUCCUAACCACGCAGCCAAGUCCUAAGUCAACAGAUCUUCUGUUGAUAUGGAUGCAGUUCACAGACUAAAUGUCGGUCGGGGAAGAUGUAUUCUUCUCAUAAGAUAUAGUCGGACCUCUCCUUAAUGGGAGCUAGCGGAUGAAGUGAUGCAACACUGGAGCCGCUGGGAACUAAUUUGUAUGCGAAAGUAUAUUGAUUAGUUUUGGAGUACUCGUGGUCG
The essentials: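 Pooled colonies went to amplicon sequencing on an Illumina HiSeq 2500 after six replicate transformations. The plates were LB agar with 100 μg/mL carbenicillin, 50 μM IPTG and 0.2% rhamnose, with or without 25 μg/mL kanamycin, incubated overnight at 37°C or 30°C. The E. coli BL21(DE3) library had all eight P1ex-region intron nucleotides randomised, the intron placed in the knt kanamycin-resistance gene on pET-22b(+). DiMSum fitness is the error-weighted combination of replicate fold changes, kanamycin against none, normalised to wild type.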

As for UUGGAGCAAUAUUACGCAGC, the “self-splicing fitness (ln)” value was -3.49 ± 0.49 (30 °C) and -1.51 ± 0.36 (37 °C).

On to UUGGAGCAAUAUUACGCCAG, for which the “self-splicing fitness (ln)” value is -3.07 ± 0.26 (30 °C) and -2.07 ± 0.37 (37 °C).

Take UUGGAGCAAUAUUACGCCCA: the “self-splicing fitness (ln)” value is -2.38 ± 0.23 (30 °C) and -0.932 ± 0.4 (37 °C).

UUGGAGCAAUAUUACGCCUA: the “self-splicing fitness (ln)” value by setting is: (30 °C) -1.39 ± 0.2; (37 °C) -0.365 ± 0.19.

In the case of UUGGAGCAAUAUUACGCGAG, the “self-splicing fitness (ln)” value is, setting by setting: (30 °C) -1.15 ± 0.13; (37 °C) -1.8 ± 0.21.

On to UUGGAGCAAUAUUACGCGCA, for which the “self-splicing fitness (ln)” value is -2.48 ± 0.29 (30 °C) and -1.09 ± 0.29 (37 °C).

Consider UUGGAGCAAUAUUACGCGGG, for which the “self-splicing fitness (ln)” value reads like this: (30 °C) -3.26 ± 0.19; (37 °C) -0.733 ± 0.15.

Consider UUGGAGCAAUAUUACGCUAU, for which the “self-splicing fitness (ln)” value runs as follows: (30 °C) -2.08 ± 0.44; (37 °C) -1.93 ± 0.28.

Turning to UUGGAGCAAUAUUACGGAGA, the “self-splicing fitness (ln)” value is -2.59 ± 0.37 (30 °C) and -1.08 ± 0.23 (37 °C).

As for UUGGAGCAAUAUUACGGCGG, the “self-splicing fitness (ln)” value by setting is: (30 °C) -2.99 ± 0.33; (37 °C) -1.88 ± 0.22.

In the case of UUGGAGCAAUAUUACGGGAA, the “self-splicing fitness (ln)” value is, setting by setting: (30 °C) -3.64 ± 0.38; (37 °C) -0.82 ± 0.17.

For UUGGAGCAAUAUUACGGGGA, the “self-splicing fitness (ln)” value by setting is: (30 °C) -3.14 ± 0.28; (37 °C) -2.72 ± 0.31.

In the case of UUGGAGCAAUAUUACGGGUG, where the note is “37 °C”, the “self-splicing fitness (ln)” value is -1.44 ± 0.23.

For UUGGAGCAAUAUUACGGUCC, the “self-splicing fitness (ln)” value (30 °C) is -3.7 ± 0.34.

With UUGGAGCAAUAUUACGGUGC, the “self-splicing fitness (ln)” value (30 °C) is -1.64 ± 0.31.

In the case of UUGGAGCAAUAUUACGUAGU, the “self-splicing fitness (ln)” value (30 °C) is -1.95 ± 0.25 and the “self-splicing fitness (ln)” value (37 °C) was -2.6 ± 0.49.

UUGGAGCAAUAUUACGUGCC: the “self-splicing fitness (ln)” value was -3.24 ± 0.32 (30 °C) and -2.74 ± 0.36 (37 °C).

With UUGGAGCAAUAUUACGUGGG, for the setting “30 °C”, the “self-splicing fitness (ln)” value is -2.17 ± 0.33.

UUGUAGCAAUAUUACGAAGA: the “self-splicing fitness (ln)” value (30 °C) was -3.14 ± 0.33.

Regarding UUGUAGCAAUAUUACGAAUU, the “self-splicing fitness (ln)” value (30 °C) is -1.53 ± 0.34 and the “self-splicing fitness (ln)” value (37 °C) is -1.47 ± 0.38.

On to UUGUAGCAAUAUUACGACAC, for which the “self-splicing fitness (ln)” value by setting is: (30 °C) -1.44 ± 0.22; (37 °C) -1.48 ± 0.32.

Turning to UUGUAGCAAUAUUACGACGG, the “self-splicing fitness (ln)” value is -0.599 ± 0.16 (30 °C) and -1.63 ± 0.17 (37 °C).

For UUGUAGCAAUAUUACGAGAA, the “self-splicing fitness (ln)” value is, setting by setting: (30 °C) -1.54 ± 0.3; (37 °C) -1.42 ± 0.3.

Take UUGUAGCAAUAUUACGAGAG: the “self-splicing fitness (ln)” value (30 °C) was -2.07 ± 0.3.

Regarding UUGUAGCAAUAUUACGAGAU, the “self-splicing fitness (ln)” value was -2.41 ± 0.33 (30 °C) and -2.32 ± 0.31 (37 °C).

For UUGUAGCAAUAUUACGAGCC, the “self-splicing fitness (ln)” value is -1.8 ± 0.27 (30 °C) and -1.78 ± 0.34 (37 °C).

UUGUAGCAAUAUUACGAGGG: the “self-splicing fitness (ln)” value (37 °C) is -1.87 ± 0.4.

Take UUGUAGCAAUAUUACGAUCA: the “self-splicing fitness (ln)” value reads like this: (30 °C) -0.608 ± 0.19; (37 °C) -0.00925 ± 0.14.

UUGUAGCAAUAUUACGCCGA: the “self-splicing fitness (ln)” value is -0.677 ± 0.23 (30 °C) and -0.628 ± 0.24 (37 °C).

For the sequence UUGUAGCAAUAUUACGCCGG, the “self-splicing fitness (ln)” value reads like this: (30 °C) -0.988 ± 0.16; (37 °C) -0.179 ± 0.27.

For UUGUAGCAAUAUUACGGAAA, the “self-splicing fitness (ln)” value is, setting by setting: (30 °C) -2.55 ± 0.39; (37 °C) -1.2 ± 0.22.

On to UUGUAGCAAUAUUACGGCAA, for which the “self-splicing fitness (ln)” value was -0.208 ± 0.12 (30 °C) and -0.27 ± 0.16 (37 °C).

UUGUAGCAAUAUUACGGCUA: the “self-splicing fitness (ln)” value (37 °C) is 0.21 ± 0.5.

Consider UUGUAGCAAUAUUACGGCUG, for which the “self-splicing fitness (ln)” value by setting is: (30 °C) -2.35 ± 0.23; (37 °C) -0.373 ± 0.22.

On to UUGUAGCAAUAUUACGGGAG, for which the “self-splicing fitness (ln)” value (37 °C) was -2.84 ± 0.4.

UUGUAGCAAUAUUACGGUGA: the “self-splicing fitness (ln)” value is, setting by setting: (30 °C) -1.11 ± 0.093; (37 °C) -0.318 ± 0.097.

Regarding UUGUAGCAAUAUUACGGUUU, the “self-splicing fitness (ln)” value was -3.53 ± 0.24 (30 °C) and -1.79 ± 0.17 (37 °C).

For the sequence UUGUAGCAAUAUUACGUACC, the “self-splicing fitness (ln)” value was -2.08 ± 0.16 (30 °C) and -1.29 ± 0.17 (37 °C).

Turning to UUGUAGCAAUAUUACGUAGA, the “self-splicing fitness (ln)” value by setting is: (30 °C) -2.75 ± 0.13; (37 °C) -1.23 ± 0.12.

For the sequence UUGUAGCAAUAUUACGUCUA, the “self-splicing fitness (ln)” value is, setting by setting: (30 °C) -0.856 ± 0.086; (37 °C) -0.738 ± 0.11.

Turning to UUGUAGCAAUAUUACGUCUC, the “self-splicing fitness (ln)” value reads like this: (30 °C) -3.54 ± 0.17; (37 °C) -1.75 ± 0.18.
